Assay results as given in patent US6465220.

Assays:
[1] = biological target: EA2 peptide
[2] = biological target: T1, PSGL-1b peptide
T1 chain: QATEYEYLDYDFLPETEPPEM

[3] = biological target: Muc7 peptide
[4] = biological target: T2, PSGL-1a peptide
T2 chain: QATEYEYLDYDFLPEC

| Protein | Km for acceptor substrate [1] | Vmax [1] | GalNAc-transferase activity [2] | Km for acceptor substrate [2] | Km for acceptor substrate [3] | Vmax [3] | GalNAc-transferase activity [4] |
| --- | --- | --- | --- | --- | --- | --- | --- |
| soluble recombinant human GalNAc-T1 (pAcGP67-GalNAc-T1-sol) (protein) GLPAGDVLEPVQKPHEGPGEMGKPVVIPKEDQEKMKEMFKINQFNLMASEMIALNRSLPDVRLEGCKTKVYPDNLPTTSVVIVFHNEAWSTLLRTVHSVINRSPRHMIEEIVLVDDASERDFLKRPLESYVKKLKVPVHVIRMEQRSGLIRARLKGAAVSKGQVITFLDAHCECTVGWLEPLLARIKHDRRTVVCPIIDVISDDTFEYMAGSDMTYGGFNWKLNFRWYPVPQREMDRRKGDRTLPVRTPTMAGGLFSIDRDYFQEIGTYDAGMDIWGGENLEISFRIWQCGGTLEIVTCSHVGHVFRKATPYTFPGGTGQIINKNNRRLAEVWMDEFKNFFYIISPGVTKVDYGDISSRVGLRHKLQCKPFSWYLENIYPDSQIPRHYFSLGEIRNVETNQCLDNMARKENEKVGIFNCHGMGGNQVFSYTANKEIRTDDLCLDVSKLNGPVTMLKCHHLKGNQLWEYDPVKLTLQHVNSNQCLDKATEEDSQVPSIRDCNGSRSQQWLLRNVTLPEIF | 70 µM | 0.99 nmol/min/µg | exhibited poor activities with both peptide designs | > 2000 µM | 40 µM | 0.76 nmol/min/µg | exhibited poor activities with both peptide designs |
| soluble recombinant human GalNAc-T3 (pAcGP67-GalNAc-T3-sol) (protein) MERNMKNKNKMLDLMLEAVNNIKDAMPKMQIGAPVRQNIDAGERPCLQGYYTAAELKPVLDRPPQDSNAPGASGKAFKTTNLSVEEQKEKERGEAKHCFNAFASDRISLHRDLGPDTRPPECIEQKFKRCPPLPTTSVIIVFHNEAWSTLLRTVHSVLYSSPAILLKEIILVDDASVDEYLHDKLDEYVKQFSIVKIVRQRERKGLITARLLGATVATAETLTFLDAHCECFYGWLEPLLARIAENYTAVVSPDIASIDLNTFEFNKPSPYGSNHNRGNFDWSLSFGWESLPDHEKQRRKDETYPIKTPTFAGGLFSISKEYFEYIGSYDEEMEIWGGENIEMSFRVWQCGGQLEIMPCSVVGHVFRSKSPHSFPKGTQVIARNQVRLAEVWMDEYKEIFYRRNTDAAKIVKQKAFGDLSKRFEIKHRLQCKNFTWYLNNIYPEVYVPDLNPVISGYIKSVGQPLCLDVGENNQGGKPLIMYTCHGLGGNQYFEYSAQHEIRHNIQKELCLHAAQGLVQLKACTYKGHKTVVTGEQIWEIQKDQLLYNPFLKMCLSANGEHPSLVSCNPSDPLQKWILSQND |  |  | exhibited poor activities with both peptide designs |  |  |  | exhibited poor activities with both peptide designs |
